Assay results taken from patent US20230399641A1 (SHANGHAITECH UNIVERSITY, published 2023).

Target: T1, receptor binding domain (RBD) of wildtype SARS-CoV-2 spike (residues 319-541) (SARS-CoV-2, UniProt P0DTC2 319-541)
T1 construct: range 319-541
Assay: SPR, purified ACE2 protein on purified RBD of SARS-CoV-2 spike

B1: purified human ACE2 mutant Q24del (receptor)
chain: STIEEAKTFLDKFNHEAEDLFYQSSLASWNYNTNITEENVQNMNNAGDKWSAFLKEQSTLAQMYPLQEIQNLTVKLQLQALQQNGSSVLSEDKSKRLNTILNTMSTIYSTGKVCNPDNPQECLLLEPGLNEIMANSLDYNERLWAWESWRSEVGKQLRPLYEEYVVLKNEMARANHYEDYGDYWRGDYEVNGVDGYDYSRGQLIEDVEHTFEEIKPLYEHLHAYVRAKLMNAYPSYISPIGCLPAHLLGDMWGRFWTNLYSLTVPFGQKPNIDVTDAMVDQAWDAQRIFKEAEKFFVSVGLPNMTQGFWENSMLTDPGNVQKAVCHPTAWDLGKGDFRILMCTKVTMDDFLTAHHEMGHIQYDMAYAAQPFLLRNGANEGFHEAVGEIMSLSAATPKHLKSIGLLSPDFQEDNETEINFLLKQALTIVGTLPFTYMLEKWRWMVFKGEIPKDQWMKKWWEMKREIVGVVEPVPHDETYCDPASLFHVSNDYSFIRYYTRTLYQFQFQEALCQAAKHEGPLHKCDISNSTEAGQKLFNMLRLGKSEPWTLALENVVGAKNMNVRPLLNYFEPLFTWLKDQNKNSFVGWSTDWSPYAD
Binder B1 has a Kd of 416 nM.
